Four molecules from paper PMC8589989 can be followed below.

Data set [1] concerns the target T1, His-MBP-ZNF384 (human, UniProt Q8TF68-2 1-516).
T1 sequence: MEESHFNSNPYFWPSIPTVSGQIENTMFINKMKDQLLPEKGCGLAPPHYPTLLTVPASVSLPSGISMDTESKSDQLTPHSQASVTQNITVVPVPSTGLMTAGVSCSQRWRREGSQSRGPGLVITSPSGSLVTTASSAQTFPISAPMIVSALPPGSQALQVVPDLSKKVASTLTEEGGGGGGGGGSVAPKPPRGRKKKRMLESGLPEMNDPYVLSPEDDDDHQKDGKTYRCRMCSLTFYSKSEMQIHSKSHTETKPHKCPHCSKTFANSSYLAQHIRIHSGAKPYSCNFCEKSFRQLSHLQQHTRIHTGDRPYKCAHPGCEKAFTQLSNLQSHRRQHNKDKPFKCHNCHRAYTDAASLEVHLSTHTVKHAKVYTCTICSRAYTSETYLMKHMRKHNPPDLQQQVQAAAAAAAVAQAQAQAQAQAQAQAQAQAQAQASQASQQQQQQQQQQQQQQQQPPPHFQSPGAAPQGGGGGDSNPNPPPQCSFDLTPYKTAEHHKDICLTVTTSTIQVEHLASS
The data set is described as follows: pull-down; did not show RNA binding; Pull-down: 10 mM Tris pH 7.5, 150 mM KCl, 5 mM MgCl2, 0.25% Tween-20, 3.5 mM DTT, 5% glycerol, 0.1% BSA, 4 C; BLI: 10 mM Tris pH 7.5, 150 mM KCl, 5 mM MgCl2, 0.05% Tween-20, 0.1% BSA, 1 mM DTT, 298 K. To be noted: protein: recombinant; tags: His6-MBP; label: 5' biotin; single strand.

In data set [2] the target is T1, His-MBP-ZNF384. Briefly: BLI; 400 nM protein; Pull-down: 10 mM Tris pH 7.5, 150 mM KCl, 5 mM MgCl2, 0.25% Tween-20, 3.5 mM DTT, 5% glycerol, 0.1% BSA, 4 C; BLI: 10 mM Tris pH 7.5, 150 mM KCl, 5 mM MgCl2, 0.05% Tween-20, 0.1% BSA, 1 mM DTT, 298 K. To be noted: protein: recombinant; tags: His6-MBP; label: 5' biotin; single strand. On the technique in general: In BLI a coated tip is dipped into the sample, and binding shifts an interference pattern.

For another data set, the target named is His-Ku70/Ku80 (UniProt P12956;P13010 1-609;1-732). The data set is described as follows: pull-down; 100 fmol Ku, without ZNF384; Pull-down: 10 mM Tris pH 7.5, 150 mM KCl, 5 mM MgCl2, 0.25% Tween-20, 3.5 mM DTT, 5% glycerol, 0.1% BSA, 4 C; BLI: 10 mM Tris pH 7.5, 150 mM KCl, 5 mM MgCl2, 0.05% Tween-20, 0.1% BSA, 1 mM DTT, 298 K. To be noted: protein: recombinant; tags: His; copies: 1;1; label: 5' biotin on strand 1; 3' overhang 20 nt (strand 1, T-rich), 24 bp duplex.
Chain of His-Ku70/Ku80 (P12956 whole entry, chain 1 of 2): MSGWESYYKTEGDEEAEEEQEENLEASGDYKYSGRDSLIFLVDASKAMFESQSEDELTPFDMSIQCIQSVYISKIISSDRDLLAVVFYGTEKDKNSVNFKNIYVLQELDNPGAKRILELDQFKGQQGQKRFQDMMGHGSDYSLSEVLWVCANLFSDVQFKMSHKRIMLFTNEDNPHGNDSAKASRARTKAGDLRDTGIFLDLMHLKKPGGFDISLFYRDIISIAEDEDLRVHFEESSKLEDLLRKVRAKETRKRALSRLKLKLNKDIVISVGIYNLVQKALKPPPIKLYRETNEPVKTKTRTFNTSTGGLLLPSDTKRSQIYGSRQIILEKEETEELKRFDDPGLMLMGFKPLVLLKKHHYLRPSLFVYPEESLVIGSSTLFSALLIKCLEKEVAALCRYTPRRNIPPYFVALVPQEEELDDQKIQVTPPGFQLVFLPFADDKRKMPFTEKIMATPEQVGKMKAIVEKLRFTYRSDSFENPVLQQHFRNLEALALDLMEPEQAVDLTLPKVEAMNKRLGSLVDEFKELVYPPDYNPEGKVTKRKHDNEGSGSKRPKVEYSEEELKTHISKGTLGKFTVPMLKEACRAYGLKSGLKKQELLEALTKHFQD
Chain of His-Ku70/Ku80 (P13010 whole entry, chain 2 of 2): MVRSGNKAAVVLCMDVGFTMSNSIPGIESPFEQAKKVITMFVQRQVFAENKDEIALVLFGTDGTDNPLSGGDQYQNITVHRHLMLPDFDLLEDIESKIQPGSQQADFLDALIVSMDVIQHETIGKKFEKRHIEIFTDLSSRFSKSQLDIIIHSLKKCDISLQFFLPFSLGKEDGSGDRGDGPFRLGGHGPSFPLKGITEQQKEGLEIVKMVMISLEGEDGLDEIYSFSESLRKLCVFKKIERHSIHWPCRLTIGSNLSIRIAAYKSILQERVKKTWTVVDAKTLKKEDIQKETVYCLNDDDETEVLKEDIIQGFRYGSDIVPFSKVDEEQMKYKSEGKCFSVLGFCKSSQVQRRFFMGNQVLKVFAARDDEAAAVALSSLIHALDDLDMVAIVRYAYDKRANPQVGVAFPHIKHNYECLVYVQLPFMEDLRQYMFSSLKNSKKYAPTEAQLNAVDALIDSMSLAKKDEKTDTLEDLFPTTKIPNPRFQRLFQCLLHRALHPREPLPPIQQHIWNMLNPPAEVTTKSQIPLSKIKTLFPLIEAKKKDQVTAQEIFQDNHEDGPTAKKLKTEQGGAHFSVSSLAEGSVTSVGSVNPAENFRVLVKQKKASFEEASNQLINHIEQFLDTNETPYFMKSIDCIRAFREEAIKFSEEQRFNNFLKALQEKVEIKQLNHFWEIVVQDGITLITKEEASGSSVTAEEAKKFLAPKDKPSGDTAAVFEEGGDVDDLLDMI

Data set [3] concerns the target His-Ku70/Ku80;His-MBP-ZNF384 (human?;human, UniProt P12956;P13010;Q8TF68-2 1-609;1-732;1-516, |). Briefly: pull-down; Ku binding enhanced by increasing ZNF384; Pull-down: 10 mM Tris pH 7.5, 150 mM KCl, 5 mM MgCl2, 0.25% Tween-20, 3.5 mM DTT, 5% glycerol, 0.1% BSA, 4 C; BLI: 10 mM Tris pH 7.5, 150 mM KCl, 5 mM MgCl2, 0.05% Tween-20, 0.1% BSA, 1 mM DTT, 298 K. To be noted: protein: recombinant;recombinant; tags: His;His6-MBP; copies: 1;1;1; label: 5' biotin on strand 1; 3' overhang 20 nt (strand 1, T-rich), 24 bp duplex.

Data set [4] addresses T1, His-MBP-ZNF384. Briefly: BLI; 400 nM protein; seemingly lower affinity than ssDNA; Pull-down: 10 mM Tris pH 7.5, 150 mM KCl, 5 mM MgCl2, 0.25% Tween-20, 3.5 mM DTT, 5% glycerol, 0.1% BSA, 4 C; BLI: 10 mM Tris pH 7.5, 150 mM KCl, 5 mM MgCl2, 0.05% Tween-20, 0.1% BSA, 1 mM DTT, 298 K. To be noted: protein: recombinant, tags: His6-MBP, 24 bp duplex.

Chain of His-Ku70/Ku80;His-MBP-ZNF384 (P12956 whole entry, chain 1 of 2): as the sequence (P12956 whole entry, chain 1 of 2) above
Chain of His-Ku70/Ku80;His-MBP-ZNF384 (P13010 whole entry, chain 2 of 2): as the sequence (P13010 whole entry, chain 2 of 2) above

As to GCGAUCAUGACGUAGACGAUAGCGUUCUUUUUUUUUCUUUUUCU (ssRNA) [RNA U-strand], in the data set with His-MBP-ZNF384 [1], the binding result was “no binding”.
With GCGATCATGACGTAGACGATAGCGTTCTTTTTTTTTCTTTTTCT (ssDNA) [ssDNA T-strand (ssDNA(T))], the binding result with His-MBP-ZNF384 [2] is reported as “binds”.

B1: 3' overhang DNA (dsDNA)
DNA 1: GCGATCATGACGTAGACGATAGCGTTCTTTTTTTTTCTTTTTCT
DNA 2: CGCTATCGTCTACGTCATGATCGC
Turning to B1, the binding result is recorded as “binds” with His-Ku70/Ku80; “binds” in data set [3]; “binds” in the data set with His-MBP-ZNF384 [4] (label: 5' biotin on strand 1, 3' overhang 20 nt (strand 1, T-rich)).

B2: 5' overhang DNA (dsDNA)
DNA 1: TTCTTTTTTTTTCTTTTTCTGCGATCATGACGTAGACGATAGCG
DNA 2: CGCTATCGTCTACGTCATGATCGC
As for B2, in the data set with His-MBP-ZNF384 [4] (label: 5' biotin on strand 2, 5' overhang 20 nt (strand 1, T-rich)), the binding result is listed as “binds”.
